± gives the uncertainty stated by the source.
Experiment: protein stability index of a GFP-peptide fusion (yeast GPS) (PSI 1-4); higher = more stable; sorted into four equal gates, so the index is relative within each strain
How it was run: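 Plasmids isolated from each sorting gate were PCR-amplified and Illumina-sequenced, and barcodes assigned the reads to strains. The gates, four of equal size, were set by GFP/Cherry fluorescence ratio on mid-log cultures in leucine-free medium. These cultures were yeast carrying a pooled library of tiled 17-residue yeast protein peptides fused downstream of GFP on a plasmid that also expresses Cherry. The protein stability index is the sum of every gate's read frequency times its gate number.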

Row | Sequence | protein stability index (doa10∆) | protein stability index (pdr5∆) | protein stability index (san1∆) | protein stability index (ubr1∆)
1 | FKGVIVKIVDKDGIRQV [PRE1] | 2.26 ± 0.18 | 3.11 ± 0.19 | 3.16 ± 0.23 | 3.13 ± 0.092
2 | EDRNESVNIAFAISMGY [ECM29] | 3.02 ± 0.12 | 2.89 ± 0.074 | 2.88 ± 0.055 | 2.82 ± 0.07
3 | KRSMDAEQLGHASKRHK [RPP1] | 2.54 ± 0.058 | 2.79 ± 0.056 | 2.68 ± 0.056 | 2.61 ± 0.054
4 | VEESGEHVILGNGELYM [SNU114] | 3.31 ± 0.08 | 3.12 ± 0.066 | 3.3 ± 0.051 | 3.13 ± 0.057
5 | EWVKLHRLLQRALFRQL [RMP1] | 1.47 ± 0.25 | 1.58 ± 0.21 | 2.86 ± 0.14 | 2.16 ± 0.14
6 | MNRPGARVTRRKRCKGT [RPL11A] | 3.05 ± 0.21 | 3.25 ± 0.13 | 3.46 ± 0.081 | 3.15 ± 0.13
7 | KQVLDVDPVYKDVAKPT [FAS2] | 2.98 ± 0.065 | 2.99 ± 0.058 | 3.08 ± 0.037 | 2.86 ± 0.041
8 | NNGNNSTSIQYHGISKN [POP6] | 2.48 ± 0.063 | 2.51 ± 0.06 | 2.65 ± 0.044 | 2.22 ± 0.07
9 | LPKIKTVRKSIACVLTV [RPL35A] | 1.98 ± 0.28 | 2.79 ± 0.18 |  | 2.17 ± 0.14
10 | FLIIVPKSTLDNWRREF [ISW2] |  | 2.37 ± 0.27 | 1.94 ± 0.16 | 1.99 ± 0.22
11 | NNSNSNNNDNNNSNTVA [SWI1] | 2.95 ± 0.058 | 3.14 ± 0.051 | 3.04 ± 0.042 | 3.13 ± 0.045
12 | LQIGDVVERHLEDGDVV [RPO31] | 3.38 ± 0.088 | 3.43 ± 0.095 | 3.49 ± 0.069 | 3.39 ± 0.098
13 | VLGTPDQKIWPYLEKYP [SSN3] | 2.42 ± 0.077 | 1.72 ± 0.053 | 2.3 ± 0.068 | 2.13 ± 0.059
14 | KVKKPLKYLSVEEVIKL [PRE7] | 2.54 ± 0.084 | 2.63 ± 0.054 | 2.75 ± 0.083 | 2.23 ± 0.067
15 | IAAIIGRLNTLVISLAA [IRR1] | 2.1 ± 0.035 | 1.99 ± 0.036 | 2.31 ± 0.052 | 1.77 ± 0.03
16 | AFGFVDRTLPHFSKDDY [RPO21] | 2.81 ± 0.068 | 3.17 ± 0.05 | 2.85 ± 0.052 | 3.16 ± 0.035
17 | QNVAGDKTAVKLDTEVK [SWP82] |  |  |  | 3.32 ± 0.089
18 | KDLQENLLVLRGKNEII [RPO21] | 1.31 ± 0.077 | 1.52 ± 0.056 | 1.6 ± 0.12 | 1.58 ± 0.071
19 | ELESMLEDLKNTKEIAV [RRP6] | 2.18 ± 0.08 | 2.27 ± 0.051 | 2.33 ± 0.063 | 2.61 ± 0.044
20 | YVNDVAIYNNPTRIRTK [RRI2] | 1.81 ± 0.052 | 2.54 ± 0.032 | 2.19 ± 0.058 | 2.4 ± 0.04
21 | YDYYALQLLPLQKAVRG [SNF2] | 1.63 ± 0.05 | 2.24 ± 0.044 | 1.87 ± 0.09 | 1.74 ± 0.035
22 | KLVTYIVKFKQKEEGRS [YLR335W/NUP2] | 3.1 ± 0.06 | 3.1 ± 0.067 | 3.33 ± 0.044 | 3.34 ± 0.051
23 | NLSLYEATAASHERFFL [CSN12] | 2.35 ± 0.065 | 2.73 ± 0.072 | 2.08 ± 0.12 | 2.62 ± 0.065
24 | MALNKVLITDHIEKLEN [CDC53] | 2.52 ± 0.053 | 2.14 ± 0.047 | 2.15 ± 0.059 | 2.28 ± 0.052
25 | GELGEIRALQPKLKEGA [YIL149C/MLP2] | 3.15 ± 0.11 | 3.34 ± 0.19 | 2.81 ± 0.15 | 3.36 ± 0.093
26 | RLTRLWIKNEQERQRQI [PRP8] | 2.42 ± 0.14 | 2.56 ± 0.26 |  | 

Row | Sequence | protein stability index (doa10∆) | protein stability index (pdr5∆) | protein stability index (san1∆) | protein stability index (ubr1∆)
27 | MFTYSQETQHGNITRGL [RPN2] | 3.28 ± 0.08 | 3.12 ± 0.12 | 3.13 ± 0.06 | 3.21 ± 0.046
28 | TESITHDSSNGLFQVLH [NUT1] | 3.12 ± 0.073 | 3.22 ± 0.061 | 2.99 ± 0.058 | 3.17 ± 0.041
29 | EKKAEYFAKLREYLEEY [RPP0] | 3.44 ± 0.092 | 3.31 ± 0.088 | 3.05 ± 0.067 | 3.54 ± 0.099
30 | KIVYIAPLKALVQEQVR [BRR2] | 1.4 ± 0.045 | 1.59 ± 0.044 | 1.41 ± 0.089 | 1.3 ± 0.051
31 | KVLINDQLSTISMILRN [SWI1] | 2.28 ± 0.047 | 2.79 ± 0.062 | 2.17 ± 0.07 | 2.68 ± 0.042
32 | VVDFLKRNGSTLEQKVN [FAS1] | 2.83 ± 0.057 | 3.03 ± 0.049 | 2.87 ± 0.048 | 3.07 ± 0.04
33 | DNISSFHSAVENLVQGN [YCG1] | 3.26 ± 0.08 | 3 ± 0.064 | 3.17 ± 0.067 | 3.31 ± 0.11
34 | IYSVEKKISRLPKFLTV [UBP6] | 2.04 ± 0.065 | 2.07 ± 0.066 | 2.14 ± 0.091 | 2.46 ± 0.035
35 | TKIIMATNRPDTLDPAL [RPT4] | 2.98 ± 0.065 | 3 ± 0.063 | 2.9 ± 0.054 | 3.12 ± 0.1
36 | LGKWYSKEDYETLKRDR [ARP7] | 3.31 ± 0.15 | 2.75 ± 0.2 | 3.33 ± 0.16 | 2.95 ± 0.15
37 | ELGTAVGKLFRVGVVSI [RPL30] | 1.31 ± 0.13 | 1.17 ± 0.1 | 1.27 ± 0.23 | 1.29 ± 0.095
38 | ITLALADAGIELVDMAG [MTR3] | 1.89 ± 0.072 | 2.43 ± 0.065 | 2.2 ± 0.1 | 2.12 ± 0.075
39 | TELKKKLDDLENTKDNL [SMC1] | 3.01 ± 0.11 | 2.94 ± 0.12 | 3.09 ± 0.12 | 2.72 ± 0.14
40 | ADLRPLQIKSIREIDVT [RPS7B] |  | 2.72 ± 0.26 | 2.53 ± 0.23 | 2.88 ± 0.1
41 | SDGQSRVKDIHLRKLLD [RET1] | 2.88 ± 0.061 | 2.98 ± 0.067 | 3.11 ± 0.068 | 2.99 ± 0.043
42 | DQFRDVEITFGKEFGDV [RRP45] | 3.21 ± 0.1 | 3.27 ± 0.063 | 3.54 ± 0.086 | 3.18 ± 0.067
43 | IVERETNWIIYPLWVMA [CSN12] | 2.81 ± 0.19 | 3.42 ± 0.24 | 2.76 ± 0.24 | 
44 | VAFLDNDLGKFIPNKQL [RPN7] | 3.34 ± 0.17 | 3.02 ± 0.17 | 2.83 ± 0.26 | 2.88 ± 0.095
45 | ISKLFLRGDSVIVVLKT [SMD2] | 2.87 ± 0.16 | 2.89 ± 0.2 |  | 
46 | DLVLGKPLADLRPLFTR [YLR335W/NUP2] | 2.97 ± 0.072 | 2.76 ± 0.11 | 2.84 ± 0.16 | 2.27 ± 0.069
47 | RDQGNDSLNDDLNKENK [YIL149C/MLP2] | 3.23 ± 0.18 |  | 3.01 ± 0.15 | 3.32 ± 0.063
48 | AIVLPMKRADKFKDMGI [RPT5] | 2.39 ± 0.096 | 3.11 ± 0.24 | 3.09 ± 0.17 | 3.09 ± 0.16
49 | RYSRQFINNVLSNPSNQ [GRR1] | 2.28 ± 0.08 | 2.45 ± 0.082 | 1.91 ± 0.1 | 2.07 ± 0.076
50 | YDSRTTIFSPEGRLYQV [PRE9] | 3.02 ± 0.1 | 3.31 ± 0.075 | 2.97 ± 0.078 | 3.09 ± 0.063
51 | ILTREVQNSTLAQLTSK [RPS1B] | 2.14 ± 0.069 | 2.71 ± 0.055 | 2.48 ± 0.075 | 2.45 ± 0.04

Source: the supplement of paper PMC9732359
